Earlier results as cited in patent US20240269237A1, “PHARMACEUTICAL COMPOSITION AND KIT COMPRISING AN IMMUNOMODULATORY SUBSTANCE FOR TREATING DISEASES” (ellennbe GmbH, priority 2021, published 2024).

Test system: ankylosing spondylitis (Bechterew's disease)
Settings: Patient 11, history; within half a year the biologics lost their effect

B1: certolizumab pegol (antibody, chains of the INN, looked up, V domains shown)
VH: EVQLVESGGGLVQPGGSLRLSCAASGYVFTDYGMNWVRQAPGKGLEWMGWINTYIGEPIYADSVKGRFTFSLDTSKSTAYLQMNSLRAEDTAVYYCARGYRSYAMDYWGQGTLVTVSS
VL: DIQMTQSPSSLSASVGDRVTITCKASQNVGTNVAWYQQKPGKAPKALIYSASFLYSGVPYRFSGSGSGTDFTLTISSLQPEDFATYYCQQYNIYPLTFGQGTKVEIK
- effect of earlier treatment with biologics: little effect from the outset
